Measured values as given in publication PMC12403835.

Legend:
C1q complement component = C1q complement component (UniProt P02745); experiment: BLI
FcgR3a(F), biotinylated = FcgR3a(F), biotinylated (UniProt P08637); experiment: SPR
FcgR3a(V), biotinylated = FcgR3a(V), biotinylated (UniProt P08637); experiment: SPR
FcgR3b Biotinylated = FcgR3b Biotinylated (UniProt O75015); experiment: SPR
UniProt O75015, sequence (O75015 17-200): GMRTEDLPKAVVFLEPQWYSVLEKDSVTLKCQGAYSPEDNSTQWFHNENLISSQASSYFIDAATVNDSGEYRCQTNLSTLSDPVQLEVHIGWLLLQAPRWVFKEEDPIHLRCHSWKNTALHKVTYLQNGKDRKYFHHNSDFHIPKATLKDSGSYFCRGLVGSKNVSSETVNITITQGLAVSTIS

UniProt P02745, sequence (P02745 23-245, chain 1 of 3): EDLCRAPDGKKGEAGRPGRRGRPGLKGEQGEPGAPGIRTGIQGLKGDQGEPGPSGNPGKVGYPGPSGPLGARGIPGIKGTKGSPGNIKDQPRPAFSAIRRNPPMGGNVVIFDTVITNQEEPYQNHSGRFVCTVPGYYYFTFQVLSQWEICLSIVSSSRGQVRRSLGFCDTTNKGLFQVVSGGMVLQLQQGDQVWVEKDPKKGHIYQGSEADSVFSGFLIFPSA
UniProt P02745, sequence (P02746 28-253, chain 2 of 3, further chain): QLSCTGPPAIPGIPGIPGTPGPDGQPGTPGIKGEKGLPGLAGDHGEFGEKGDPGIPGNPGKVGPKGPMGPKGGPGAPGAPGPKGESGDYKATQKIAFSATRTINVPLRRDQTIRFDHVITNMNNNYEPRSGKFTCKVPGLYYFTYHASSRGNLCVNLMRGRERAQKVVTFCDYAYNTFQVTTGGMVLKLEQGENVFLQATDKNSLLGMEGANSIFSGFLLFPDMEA
UniProt P02745, sequence (P02747 29-245, chain 3 of 3, further chain): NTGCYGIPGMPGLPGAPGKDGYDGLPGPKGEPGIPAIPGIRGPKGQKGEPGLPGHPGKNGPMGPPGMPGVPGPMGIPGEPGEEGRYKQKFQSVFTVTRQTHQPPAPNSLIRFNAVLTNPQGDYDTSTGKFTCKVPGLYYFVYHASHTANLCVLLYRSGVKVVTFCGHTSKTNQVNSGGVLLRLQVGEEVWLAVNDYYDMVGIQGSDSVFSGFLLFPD

| Substance | Kd (C1q complement component) [nM] | Kd (FcgR3a(F), biotinylated) [nM] | Kd (FcgR3a(V), biotinylated) [nM] | Kd (FcgR3b Biotinylated) [nM] |
| --- | --- | --- | --- | --- |
| CIS43 wild-type mAb (IgG1m3) | 1.8 | 2510 | 590 | 5240 |
| CIS43-LS (IgG1m3-LS) | 1.5 | 2780 | 590 | 5010 |
| CIS43-LS-G236A (IgG1m3-LS-GA) |  | 4620 | 1270 | 17400 |

These reach a lower Kd (FcgR3b Biotinylated). Values come first.

| Kd (C1q complement component) [nM] | Kd (FcgR3a(F), biotinylated) [nM] | Kd (FcgR3a(V), biotinylated) [nM] | Kd (FcgR3b Biotinylated) [nM] | Substance |
| --- | --- | --- | --- | --- |
|  |  |  | 1020 | CIS43-LS-GAALIE (IgG1m3-LS-GAALIE) |
| 1.7 | 160 |  | 330 | CIS43-LS-AFUC (afucosylated CIS43-LS) |
